The target of this assay is 508F(Fv)-CBD (508 scFv mutant C96F fused to CBD) (Clostridium thermocellum) (UniProt Q06851). In words: competitive ELISA, soluble βAP(1-16) pre-incubated with 508F(Fv)-CBD before βAP coated wells. (In general: ELISA stands for enzyme-linked immunosorbent assay.)

The term IC50 denotes the concentration that inhibits the measured activity by half. Higher therefore signals weaker potency. Turning to “βAP(1-16), β-amyloid 1-16 amino acid peptide”, the 50% inhibitory concentration (IC50) worked out at 1000 nM.

These data come from US20040013647A1.
